In patent US20200166512A1 (CENTRE NATIONAL DE LA RECHERCHE SCIENTIFIQUE, published 2020):
Where no end group is shown, it is not given here.

Target: T1, antigenic peptide REEHIEGGHSNTDRPSR (human immunogenic peptide, residues 365-381 of IL4I1) coupled to BSA (human, also: coupled through Ahx spacer and Cys to BSA carrier, end not given here)
T1 peptide: REEHIEGGHSNTDRPSR
Test: ELISA screen against the antigenic peptide coupled to BSA

| Binder | binding result |
| --- | --- |
| anti-IL4I1 antibody A-3 IgG/λ (rabbit monoclonal, clone A-3) (antibody, V domains shown, Rabbit IgG/lambda from a hybridoma; It was used as hybridoma supernatant (clone A) or as purified IgG (subclone A-3); also called IgG A-3; AbA-3) VH: QSLEESGGDLVKPEGSLTLTCTASGFSLSAGYFMCWVRQAPGKGLEWIGSIFSGSSGSTYYASWAKGRFTISKTSSTTVTLQMTSLTAADTAIYFCARGGVVDGRVAYDNSFDHWGPGTLVTVSS VL: ELVLTQSPSVSAALGASAKLTCTLSSAHSTYTIDWYQQQPGESPRYLMQLKSDGTYTKGTGVPDRFSGSSSGADRYLIIPSVQADDEAGYYCGANYSGGYVFGGGTQLTVTR | binds |
| anti-IL4I1 antibody D-5 IgG/λ (rabbit monoclonal, clone D-5, hybridoma CNCM I-5355) (antibody, V domains shown, Rabbit IgG/lambda from a hybridoma; It was used as hybridoma supernatant (clone D) or as purified IgG (subclone D-5); also called IgG D-5; AbD-5) VH: QQQLVESGGDLVKPEGSLTLTCTASGFSLSAGYFICWIRQAPGKGLEWIGSVFSGSSGTTYYASWAKGRFTISKTSSTTVTLQMTSLTAADTAIYFCARGGVLGGRVAYDNSFDHWGPGTLVTVSS VL: ELVLTQSPSVSAALGASAKLTCTLSSAHSTYTIEWYQQQPGESPRYLMQLKSDGSYTKGTGVPDRFSGSSSGADRYLIIFSVQADDEADYYCGANYSSGYVFGGGTQLTVT | binds |
